Reference: publication PMC4876393, “Structure of the Dictyostelium Myosin-II Heavy Chain Kinase A (MHCK-A) α-kinase domain apoenzyme reveals a novel autoinhibited conformation” (Scientific Reports, 2016)
Blank lines part the entries; values can stand above or below the molecule they belong to. Non-standard residues stand in square brackets, D forms with d. No end group written: not given here. pT = C[C@@H](OP(=O)(O)O)[C@H](N)C(=O)O

Tests used:
[1] = tested on: T1, Nc1ncnc2c1ncn2[C@@H]1O[C@H](COP(=O)(O)OP(=O)(O)OP(=O)(O)O)[C@@H](O)[C@H]1O; experiment: ATPase assay by inorganic phosphate release (Pi ColorLock Gold) at 22 °C in 2 mM MgCl2, 1 mM dithiothreitol, 20 mM TES, pH 7.0.; format: biochemical
T1 construct: A-CAT: alpha-kinase domain and Thr825 autophosphorylation site of MHCK-A; expressed in E. coli
Method: (§1) Assays were carried out at 22 °C in a buffer containing 2 mM MgCl2, 1 mM dithiothreitol and 20 mM TES, pH 7.0. Kinase assays contained 20 μM myelin basic protein (MBP), 0.5–2 μM A-CAT and 200 μM [γ-^32P]ATP (specific activity 100 cpm/pmol). At each time point, 20 μl aliquots of the reaction mixture were spotted onto squares of Whatman P81 phosphocellulose paper, which were then washed 1% phosphoric acid, immersed in ScintiVerse Universal LS Mixture (Fisher Scientific), and counted using a Beckman LS 9000 scintillation counter. Assays to measure A-CAT-Δ809 activity in the presence of the QQG(p)TMVMPD and QQG(p)TMSMPD peptides were carried out as described. ATPase activity was assayed using 250 μM ATP and release of inorganic phosphate (Pi) was measured using the Pi ColorLock Gold phosphate detection system (Innova Biosciences). Data from the initial linear portion of the time courses were used to calculate kinase and ATPase activity. Nucleotide binding assays using mant-ATP and mant-ADP were carried out as previously described. Results represent the mean and standard deviation of at least 3 separate experiments.

[2] = tested on: T1, Nc1ncnc2c1ncn2[C@@H]1O[C@H](COP(=O)(O)OP(=O)(O)OP(=O)(O)O)[C@@H](O)[C@H]1O; experiment: Radiometric kinase assay with [γ-32P]ATP and 20 μM myelin basic protein as phosphate acceptor (P81 paper) at 22 °C in 2 mM MgCl2, 1 mM dithiothreitol, 20 mM TES, pH 7.0.; format: biochemical
Method: as §1

[3] = tested on: T2, Nc1ncnc2c1ncn2[C@@H]1O[C@H](COP(=O)(O)OP(=O)(O)OP(=O)(O)O)[C@@H](O)[C@H]1O; experiment: ATPase assay by inorganic phosphate release (Pi ColorLock Gold) at 22 °C in 2 mM MgCl2, 1 mM dithiothreitol, 20 mM TES, pH 7.0.; format: biochemical
T2 construct: A-CAT: alpha-kinase domain and Thr825 autophosphorylation site of MHCK-A
Method: as §1

[4] = tested on: T2, Nc1ncnc2c1ncn2[C@@H]1O[C@H](COP(=O)(O)OP(=O)(O)OP(=O)(O)O)[C@@H](O)[C@H]1O; experiment: Radiometric kinase assay with [γ-32P]ATP and 20 μM myelin basic protein as phosphate acceptor (P81 paper) at 22 °C in 2 mM MgCl2, 1 mM dithiothreitol, 20 mM TES, pH 7.0.; format: biochemical
Method: as §1

[5] = substrate: Nc1ncnc2c1ncn2[C@@H]1O[C@H](COP(=O)(O)OP(=O)(O)OP(=O)(O)O)[C@@H](O)[C@H]1O; experiment: ATPase assay by inorganic phosphate release (Pi ColorLock Gold) at 22 °C in 2 mM MgCl2, 1 mM dithiothreitol, 20 mM TES, pH 7.0.; format: biochemical
Method: as §1

[6] = substrate: Nc1ncnc2c1ncn2[C@@H]1O[C@H](COP(=O)(O)OP(=O)(O)OP(=O)(O)O)[C@@H](O)[C@H]1O; experiment: Radiometric kinase assay with [γ-32P]ATP and 20 μM myelin basic protein as phosphate acceptor (P81 paper) at 22 °C in 2 mM MgCl2, 1 mM dithiothreitol, 20 mM TES, pH 7.0.; format: biochemical
Method: as §1

[7] = ATPase activity of A-CAT and mutants (phosphate release); format: biochemical; settings: 22 °C, 2 mM MgCl2, 20 mM TES, pH 7.0; Pi ColorLock Gold phosphate detection; mean and standard deviation of at least 3 separate experiments
Method: as §1

[8] = tested on: myelin basic protein (MBP); experiment: Kinase activity of A-CAT and mutants towards myelin basic protein; format: biochemical; settings: 20 μM MBP, 0.5–2 μM A-CAT, [γ-^32P]ATP; 22 °C, pH 7.0; mean and standard deviation of at least 3 separate experiments
Method: as §1

[9] = biological target: A-CAT-Δ809, truncated A-CAT that lacks the activating Thr825 site of autophosphorylation (Dictyostelium)

Molecule: D663A (Dictyostelium discoideum; D663A)
Km [1]: 21 ± 5 µM | kcat [1]: 0.0167 ± 0.00333 s⁻¹ | Km [2]: 54 ± 25 µM | kcat [2]: 0.00105 ± 0.000117 s⁻¹

Molecule: D663S (Dictyostelium discoideum; D663S)
Km [3]: 31 ± 7 µM | kcat [3]: 0.00733 ± 0.00267 s⁻¹ | Km [4]: 29 ± 16 µM | kcat [4]: 0.00103 ± 0.000117 s⁻¹

Molecule: Y647A (Dictyostelium discoideum; Y647A)
kcat [3]: 0.00483 ± 0.00117 s⁻¹ | Km [4]: 162 ± 38 µM | kcat [4]: 0.00367 ± 0.000333 s⁻¹

Molecule: Y647F (Dictyostelium discoideum; Y647F)
Km [3]: 64 ± 2 µM | kcat [3]: 0.00633 ± 0.00117 s⁻¹ | Km [4]: 65 ± 35 µM | kcat [4]: 0.00045 ± 0.000117 s⁻¹

B1: A-CAT WT (Dictyostelium discoideum) (protein)
chain: ISSETGEMGILWEFDPIINKWIRLSMKLKVERKPFAEGALREAYHTVSLGVGTDENYPLGTTTKLFPPIEMISPISKNNEAMTQLKNGTKFVLKLYKKEAEQQASRELYFEDVKMQMVCRDWGNKFNQKKPPKKIEFLMSWVVELIDRSPSSNGQPILCSIEPLLVGEFKKNNSNYGAVLTNRSTPQAFSHFTYELSNKQMIVVDIQGVDDLYTDPQIHTPDGKGFGLGNLGKAGINKFITTHKCNAVCALLDLDVKLGGVLSGNNKKQLQQGTMVMPDILPELMPSDNT
notes: A-CAT: alpha-kinase domain and Thr825 autophosphorylation site of MHCK-A; expressed in E. coli
Km [5]: 35 ± 4 µM | kcat [5]: 0.0317 ± 0.00167 s⁻¹ | Km [6]: 23 ± 5 µM | kcat [6]: 0.0967 ± 0.00667 s⁻¹

B2: WT: α-kinase domain and Thr825 autophosphorylation site of MHCK-A (protein)
chain: B1 chain
modifications: phosphothreonine at 612 (P-Thr612); phosphoaspartate at 663 (P-Asp663)
notes: α-kinase domain and Thr825 autophosphorylation site of MHCK-A
ATPase Activity kcat [7]: 0.0317 ± 0.0017 s⁻¹ | Kinase Activity kcat [8]: 0.0967 ± 0.0067 s⁻¹

kinase activity of A-CAT-Δ809 assayed in the presence of the peptide; Kd from a hyperbolic curve fit [9]: 98 µM
Molecule: QQG[pT]MSMPD [QQG(p)TMSMPD phosphopeptide]

kinase activity of A-CAT-Δ809 assayed in the presence of the peptide; Kd from a hyperbolic curve fit [9]: 38 µM
Molecule: QQG[pT]MVMPD [QQG(p)TMVMPD phosphopeptide]
